Test results reported in publication PMC10926635, “Membrane-associated RING-CH 7 inhibits stem-like capacities of bladder cancer cells by interacting with nucleotide-binding oligomerization domain containing 1” (Cell & Bioscience, 2024).

Biological target: T1, HA-NOD1, purified protein (UniProt Q9Y239-1 1-953)
T1 construct: also called purified NOD1 protein; source: purified by Hangzhou Jingjie Biotechnology Co., Ltd
T1 sequence (looked up): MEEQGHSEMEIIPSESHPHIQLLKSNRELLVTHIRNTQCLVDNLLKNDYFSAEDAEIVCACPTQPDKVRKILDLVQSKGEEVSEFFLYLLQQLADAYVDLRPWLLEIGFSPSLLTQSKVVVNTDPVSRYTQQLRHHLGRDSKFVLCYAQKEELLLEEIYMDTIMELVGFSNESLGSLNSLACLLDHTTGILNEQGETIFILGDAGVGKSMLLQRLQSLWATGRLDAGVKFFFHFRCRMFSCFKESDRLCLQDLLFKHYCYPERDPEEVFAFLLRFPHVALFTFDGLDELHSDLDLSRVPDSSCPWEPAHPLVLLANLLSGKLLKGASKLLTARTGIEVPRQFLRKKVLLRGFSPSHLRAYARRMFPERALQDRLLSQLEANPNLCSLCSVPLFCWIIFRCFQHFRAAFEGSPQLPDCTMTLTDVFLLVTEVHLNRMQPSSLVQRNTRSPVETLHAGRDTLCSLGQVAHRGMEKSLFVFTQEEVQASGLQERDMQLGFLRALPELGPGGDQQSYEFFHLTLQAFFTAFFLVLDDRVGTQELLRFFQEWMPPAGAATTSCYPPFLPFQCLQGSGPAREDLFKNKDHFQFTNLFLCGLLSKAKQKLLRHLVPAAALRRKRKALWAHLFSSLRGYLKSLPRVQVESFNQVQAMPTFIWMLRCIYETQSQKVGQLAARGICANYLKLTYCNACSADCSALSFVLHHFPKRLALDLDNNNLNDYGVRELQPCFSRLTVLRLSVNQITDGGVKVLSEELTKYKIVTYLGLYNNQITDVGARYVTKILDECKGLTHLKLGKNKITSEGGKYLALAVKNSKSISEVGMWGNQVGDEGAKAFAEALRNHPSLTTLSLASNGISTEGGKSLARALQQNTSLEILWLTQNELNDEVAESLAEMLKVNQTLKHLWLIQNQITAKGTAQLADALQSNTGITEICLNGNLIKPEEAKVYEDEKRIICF
Assay: co-IP; purified Flag-MARCH7 and HA-NOD1 proteins mixed; co-IP as for the cell lysates
Conditions: both partners purified

- binding result: binds
B1: Flag-MARCH7-WT, purified protein (enzyme, UniProt Q9H992-1 1-704, looked up)
chain: MESKPSRIPRRISVQPSSSLSARMMSGSRGSSLNDTYHSRDSSFRLDSEYQSTSASASASPFQSAWYSESEITQGARSRSQNQQRDHDSKRPKLSCTNCTTSAGRNVGNGLNTLSDSSWRHSQVPRSSSMVLGSFGTDLMRERRDLERRTDSSISNLMDYSHRSGDFTTSSYVQDRVPSYSQGARPKENSMSTLQLNTSSTNHQLPSEHQTILSSRDSRNSLRSNFSSRESESSRSNTQPGFSYSSSRDEAPIISNSERVVSSQRPFQESSDNEGRRTTRRLLSRIASSMSSTFFSRRSSQDSLNTRSLNSENSYVSPRILTASQSRSNVPSASEVPDNRASEASQGFRFLRRRWGLSSLSHNHSSESDSENFNQESEGRNTGPWLSSSLRNRCTPLFSRRRREGRDESSRIPTSDTSSRSHIFRRESNEVVHLEAQNDPLGAAANRPQASAASSSATTGGSTSDSAQGGRNTGISGILPGSLFRFAVPPALGSNLTDNVMITVDIIPSGWNSADGKSDKTKSAPSRDPERLQKIKESLLLEDSEEEEGDLCRICQMAAASSSNLLIEPCKCTGSLQYVHQDCMKKWLQAKINSGSSLEAVTTCELCKEKLELNLEDFDIHELHRAHANEQAEYEFISSGLYLVVLLHLCEQSFSDMMGNTNEPSTRVRFINLARTLQAHMEDLETSEDDSEEDGDHNRTFDIA
notes: Membrane-associated RING-CH 7 (MARCH7); also called purified MARCH7 protein; source: purified by Hangzhou Jingjie Biotechnology Co., Ltd
